Experimental findings from paper PMC6632115 are described below.

This assay has as its target T1, colicin E3 (Escherichia coli) (UniProt P00646).
T1 sequence: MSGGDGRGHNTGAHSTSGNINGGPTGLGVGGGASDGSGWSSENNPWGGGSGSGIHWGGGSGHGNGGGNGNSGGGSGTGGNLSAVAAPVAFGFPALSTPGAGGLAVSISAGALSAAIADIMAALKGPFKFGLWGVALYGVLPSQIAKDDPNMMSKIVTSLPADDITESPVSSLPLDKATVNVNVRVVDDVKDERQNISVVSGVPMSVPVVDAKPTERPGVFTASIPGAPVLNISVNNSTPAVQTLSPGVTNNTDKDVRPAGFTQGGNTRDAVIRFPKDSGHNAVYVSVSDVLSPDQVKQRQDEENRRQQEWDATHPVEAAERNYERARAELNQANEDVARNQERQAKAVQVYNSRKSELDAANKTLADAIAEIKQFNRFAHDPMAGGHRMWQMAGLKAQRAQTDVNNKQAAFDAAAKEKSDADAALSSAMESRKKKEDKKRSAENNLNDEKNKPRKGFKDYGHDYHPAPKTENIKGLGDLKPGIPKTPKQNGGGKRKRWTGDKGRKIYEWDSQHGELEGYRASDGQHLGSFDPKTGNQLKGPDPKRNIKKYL

B1: E3 immunity protein, co-expressed with colicin E3 in CFPS (natural protein)
chain: MGLKLDLTWFDKSTEDFKGEEYSKDFGDDGSVMESLGVPFKDNVNNGCFDVIAEWVPLLQPYFNHQIDISDNEYFVSFDYRDGDW
Turning to B1, the effective multiplicity m = -ln(S/S0) of cell killing of K361 indicator cells by 250 ng/mL colicin E3 co-expressed with the immunity protein was determined as 13.5.
